Data published in PMC5562754.

Key:
[1] = molecular target: PorU (Porphyromonas gingivalis W50 (endogenous in OMVs)); assay: native gel or EMSA; 2D BN-PAGE (Coomassie, spots identified by MS, densitometry) of large-scale glycerol gradient fractions F15-F17 of 1% DDM-solubilised OMV lysate of WT W50
[2] = molecular target: PorQ (strain ATCC 33277) (Porphyromonas gingivalis ATCC 33277 (endogenous in OMVs)); assay: native gel or EMSA; conditions: scale: PorZ per PorQ

PorQ (natural protein)
stoichiometry N ([1]; scale: PorQ per PorU): 1

PorZ (strain ATCC 33277) (natural protein)
stoichiometry N [2]: 1

PorV (natural protein)
stoichiometry N ([1]; scale: PorV per PorU): 3

PorZ (natural protein)
stoichiometry N ([1]; scale: PorZ per PorU): 1
